Paper PMC2877795, “Laminin chain assembly is regulated by specific coiled-coil interactions” (Journal of Structural Biology, 2010)

Key:
Settings in all cases: both partners purified
[1] = molecular target: T1, β2γ1 complex of the recombinant mouse laminin coiled-coil fragments (mouse, UniProt Q61292 1575-1799; P02468 1362-1607); assay: native gel or EMSA; mixtures of one α, one β and one γ chain fragment; 10% non-denaturing PAGE (acid gels for basic complexes); mixtures reduced, heated to 70 °C for 5 min and cooled; run overnight at 50 V, room temperature, no cooling; Coomassie; bands confirmed by in-gel trypsin digestion and mass spectrometry
T1 construct: two residues (GlySer) left from the protease recognition site after thrombin cleavage; laminin β2 chain, mouse, residues 1575-1799 of the native chain; as m7; laminin γ1 chain, mouse, residues 1362-1607 of the native chain; as m9; in the αβγ tests all three chains were mixed, the βγ complex was not isolated beforehand; source: mixture of the purified E. coli fragments; not shown: 6xHis, …
T1 sequence 1: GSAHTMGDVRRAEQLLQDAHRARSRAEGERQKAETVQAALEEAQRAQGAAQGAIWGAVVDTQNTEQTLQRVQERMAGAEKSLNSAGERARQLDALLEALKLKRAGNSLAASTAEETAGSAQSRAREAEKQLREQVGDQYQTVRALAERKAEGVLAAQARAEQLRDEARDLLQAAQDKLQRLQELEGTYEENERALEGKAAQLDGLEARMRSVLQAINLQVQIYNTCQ
T1 sequence 2: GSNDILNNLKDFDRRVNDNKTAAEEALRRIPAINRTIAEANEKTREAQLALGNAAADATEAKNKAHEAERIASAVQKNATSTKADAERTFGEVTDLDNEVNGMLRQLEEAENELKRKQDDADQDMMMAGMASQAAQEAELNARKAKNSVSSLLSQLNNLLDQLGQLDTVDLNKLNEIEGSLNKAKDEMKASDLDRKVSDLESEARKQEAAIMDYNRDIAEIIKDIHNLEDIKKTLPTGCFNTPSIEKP

[2] = molecular target: T2, β2γ3 complex of the recombinant mouse laminin coiled-coil fragments (mouse, UniProt Q61292 1575-1799; Q9R0B6 1344-1581); assay: as above
T2 construct: two residues (GlySer) left from the protease recognition site after thrombin cleavage; laminin β2 chain, mouse, residues 1575-1799 of the native chain; as m7; laminin γ3 chain, mouse, residues 1344-1581 of the native chain; as m11; in the αβγ tests all three chains were mixed, the βγ complex was not isolated beforehand; source: mixture of the purified E. coli fragments; not shown: 6xHis, …
T2 sequence 1: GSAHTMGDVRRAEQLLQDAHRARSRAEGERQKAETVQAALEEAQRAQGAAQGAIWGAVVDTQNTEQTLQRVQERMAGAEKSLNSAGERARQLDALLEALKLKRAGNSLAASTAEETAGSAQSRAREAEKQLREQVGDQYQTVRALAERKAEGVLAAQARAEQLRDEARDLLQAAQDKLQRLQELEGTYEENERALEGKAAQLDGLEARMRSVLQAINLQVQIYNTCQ
T2 sequence 2: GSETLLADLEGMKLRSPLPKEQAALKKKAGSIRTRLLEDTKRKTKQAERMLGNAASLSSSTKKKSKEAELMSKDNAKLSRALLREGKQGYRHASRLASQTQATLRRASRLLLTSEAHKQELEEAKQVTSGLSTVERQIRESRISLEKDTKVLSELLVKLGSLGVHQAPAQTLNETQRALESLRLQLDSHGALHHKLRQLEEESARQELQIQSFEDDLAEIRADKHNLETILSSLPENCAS

[3] = molecular target: T3, β1γ1 complex of the recombinant mouse laminin coiled-coil fragments (mouse, UniProt P02469 1561-1786; P02468 1362-1607); assay: as above
T3 construct: two residues (GlySer) left from the protease recognition site after thrombin cleavage; laminin β1 chain, mouse, residues 1561-1786 of the native chain; as m6; laminin γ1 chain, mouse, residues 1362-1607 of the native chain; as m9; heterodimer by AUC; in the αβγ tests all three chains were mixed, the βγ complex was not isolated beforehand; source: mixture of the purified E. coli fragments; not …
T3 sequence 1: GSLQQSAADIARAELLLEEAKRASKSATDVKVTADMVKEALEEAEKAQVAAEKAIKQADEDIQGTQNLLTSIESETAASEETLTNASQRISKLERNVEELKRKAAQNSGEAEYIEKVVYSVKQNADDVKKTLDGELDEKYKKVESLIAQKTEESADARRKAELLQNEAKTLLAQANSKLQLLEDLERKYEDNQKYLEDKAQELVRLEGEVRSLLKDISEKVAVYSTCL
T3 sequence 2: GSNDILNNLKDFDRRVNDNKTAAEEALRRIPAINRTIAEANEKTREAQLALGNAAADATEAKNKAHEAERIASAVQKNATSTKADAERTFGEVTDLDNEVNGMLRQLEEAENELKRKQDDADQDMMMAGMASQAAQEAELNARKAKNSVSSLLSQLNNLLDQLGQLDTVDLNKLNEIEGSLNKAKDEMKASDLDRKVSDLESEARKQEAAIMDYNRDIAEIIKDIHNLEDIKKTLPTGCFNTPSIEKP

[4] = molecular target: T4, recombinant mouse laminin γ1 chain C-terminal coiled-coil fragment (1362–1607) (mouse, UniProt P02468 1362-1607); assay: native gel or EMSA; mixtures of one β and one γ chain fragment; 10% non-denaturing PAGE (acid gels for basic complexes); mixtures reduced, heated to 70 °C for 5 min and cooled; run overnight at 50 V; Coomassie; bands confirmed by in-gel trypsin digestion and mass spectrometry
T4 construct: two residues (GlySer) left from the protease recognition site after thrombin cleavage; laminin γ1 chain, mouse, C-terminal coiled-coil fragment, residues 1362-1607 of the native chain (246 residues); source: E. coli JM109(DE3), purified (Ni2+-Sepharose, denaturing, 8 M urea), 6xHis tag removed by thrombin; not shown: 6xHis, N-terminal, cleaved; pPEP-T leader (short C-terminal fragment of the …)
T4 sequence: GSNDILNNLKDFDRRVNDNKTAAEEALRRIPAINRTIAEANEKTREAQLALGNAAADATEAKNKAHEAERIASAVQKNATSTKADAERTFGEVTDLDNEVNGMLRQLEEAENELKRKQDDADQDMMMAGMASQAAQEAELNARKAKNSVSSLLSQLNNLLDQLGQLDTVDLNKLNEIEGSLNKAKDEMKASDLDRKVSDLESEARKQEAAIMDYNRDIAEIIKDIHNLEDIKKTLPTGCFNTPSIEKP

[5] = molecular target: T5, recombinant mouse laminin γ3 chain C-terminal coiled-coil fragment (1344–1581) (mouse, UniProt Q9R0B6 1344-1581); assay: as above
T5 construct: two residues (GlySer) left from the protease recognition site after thrombin cleavage; laminin γ3 chain, mouse, C-terminal coiled-coil fragment, residues 1344-1581 of the native chain (238 residues); source: E. coli JM109(DE3), purified (Ni2+-Sepharose, denaturing, 8 M urea), 6xHis tag removed by thrombin; not shown: 6xHis, N-terminal, cleaved
T5 sequence: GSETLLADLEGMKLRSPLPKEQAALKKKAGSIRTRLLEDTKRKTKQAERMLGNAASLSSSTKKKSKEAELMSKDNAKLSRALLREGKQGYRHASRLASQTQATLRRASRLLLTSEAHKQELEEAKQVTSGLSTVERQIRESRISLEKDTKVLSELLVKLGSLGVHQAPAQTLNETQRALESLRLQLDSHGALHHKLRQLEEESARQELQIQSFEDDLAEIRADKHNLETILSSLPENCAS

[6] = molecular target: T6, recombinant mouse laminin γ2 chain C-terminal coiled-coil fragment (949–1191) (mouse, UniProt Q61092 949-1191); assay: as above
T6 construct: two residues (GlySer) left from the protease recognition site after thrombin cleavage; laminin γ2 chain, mouse, C-terminal coiled-coil fragment, residues 949-1191 of the native chain (243 residues); source: E. coli JM109(DE3), purified (Ni2+-Sepharose, denaturing, 8 M urea), 6xHis tag removed by thrombin; not shown: 6xHis, N-terminal, cleaved; pPEP-T leader (short C-terminal fragment of the …)
T6 sequence: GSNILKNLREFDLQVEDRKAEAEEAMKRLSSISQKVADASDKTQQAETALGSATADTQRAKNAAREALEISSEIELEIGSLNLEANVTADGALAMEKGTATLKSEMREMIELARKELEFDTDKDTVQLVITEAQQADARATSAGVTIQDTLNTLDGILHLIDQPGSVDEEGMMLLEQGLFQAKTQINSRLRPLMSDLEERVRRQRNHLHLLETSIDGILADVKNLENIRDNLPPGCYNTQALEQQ

[7] = molecular target: T7, β2γ2 complex of the recombinant mouse laminin coiled-coil fragments (mouse, UniProt Q61292 1575-1799; Q61092 949-1191); assay: native gel or EMSA; mixtures of one α, one β and one γ chain fragment; 10% non-denaturing PAGE (acid gels for basic complexes); mixtures reduced, heated to 70 °C for 5 min and cooled; run overnight at 50 V, room temperature, no cooling; Coomassie; bands confirmed by in-gel trypsin digestion and mass spectrometry
T7 construct: two residues (GlySer) left from the protease recognition site after thrombin cleavage; laminin β2 chain, mouse, residues 1575-1799 of the native chain; as m7; laminin γ2 chain, mouse, residues 949-1191 of the native chain; as m10; in the αβγ tests all three chains were mixed, the βγ complex was not isolated beforehand; also called β2γ2 dimer; source: mixture of the purified E. coli fragments; not …
T7 sequence 1: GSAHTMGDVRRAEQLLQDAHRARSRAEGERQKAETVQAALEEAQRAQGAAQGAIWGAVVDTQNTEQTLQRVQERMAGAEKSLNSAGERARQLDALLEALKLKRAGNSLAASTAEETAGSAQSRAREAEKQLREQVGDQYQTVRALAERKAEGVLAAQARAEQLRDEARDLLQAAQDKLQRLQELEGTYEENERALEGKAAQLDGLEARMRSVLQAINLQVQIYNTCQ
T7 sequence 2: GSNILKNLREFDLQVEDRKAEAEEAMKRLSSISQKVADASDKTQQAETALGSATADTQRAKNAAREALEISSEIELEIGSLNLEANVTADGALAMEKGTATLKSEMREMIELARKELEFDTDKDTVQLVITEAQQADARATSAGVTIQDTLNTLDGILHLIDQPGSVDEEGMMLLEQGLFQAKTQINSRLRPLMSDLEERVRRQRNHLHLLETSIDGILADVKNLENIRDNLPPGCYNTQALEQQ

Measured: binding result

B1: recombinant mouse laminin α5 chain C-terminal coiled-coil fragment (2525–2748) (domain or fragment)
chain: GSNAYSSILQAVQAAEDAAGQALRQASRTWEMVVQRGLAAGARQLLANSSALEETILGHQGRLGLAQGRLQAAGIQLHNVWARKNQLAAQIQEAQAMLAMDTSETSEKIAHAKAVAAEALSTATHVQSQLQGMQKNVERWQSQLGGLQGQDLSQVERDASSSVSTLEKTLPQLLAKLSRLENRGVHNASLALSANIGRVRKLIAQARSAASKVKVSMKFNGRSGVR
notes: two residues (GlySer) left from the protease recognition site after thrombin cleavage; laminin α5 chain, mouse, C-terminal coiled-coil fragment, residues 2525-2748 of the native chain (224 residues); source: E. coli JM109(DE3), purified (Ni2+-Sepharose, denaturing, 8 M urea), 6xHis tag removed by thrombin; not shown: 6xHis, N-terminal, cleaved
binds: [1] | [2] | [3]

B2: recombinant mouse laminin β2 chain C-terminal coiled-coil fragment (1575–1799) (domain or fragment)
chain: GSAHTMGDVRRAEQLLQDAHRARSRAEGERQKAETVQAALEEAQRAQGAAQGAIWGAVVDTQNTEQTLQRVQERMAGAEKSLNSAGERARQLDALLEALKLKRAGNSLAASTAEETAGSAQSRAREAEKQLREQVGDQYQTVRALAERKAEGVLAAQARAEQLRDEARDLLQAAQDKLQRLQELEGTYEENERALEGKAAQLDGLEARMRSVLQAINLQVQIYNTCQ
notes: two residues (GlySer) left from the protease recognition site after thrombin cleavage; laminin β2 chain, mouse, C-terminal coiled-coil fragment, residues 1575-1799 of the native chain (225 residues); source: E. coli JM109(DE3), purified (Ni2+-Sepharose, denaturing, 8 M urea), 6xHis tag removed by thrombin; not shown: 6xHis, N-terminal, cleaved
binds: [4] | [5] | [6]

B3: recombinant mouse laminin α4 chain C-terminal coiled-coil fragment (616–842) (domain or fragment)
chain: GSASNVYENIANYVSEANETAELALNITDRIYDAVSGIDTQIIYHKDESDNLLNQARELQAKADSSNDEAVADTSRRVGGALWRKGALRDRLNDAVKQLQAAERGDAHQRLGQSKLFIEEANKTTAAVQQVTTPMANNLSNWSQNLQTFDSSAYNTAVDSARDAVRNLTEVVPQLLDQLRTVEQKRPASNISASIQRIRELIAQTRSVASKIQVSMMFDGQSAVEVHPK
notes: two residues (GlySer) left from the protease recognition site after thrombin cleavage; laminin α4 chain, mouse, C-terminal coiled-coil fragment, residues 616-842 of the native chain (227 residues); source: E. coli JM109(DE3), purified (Ni2+-Sepharose, denaturing, 8 M urea), 6xHis tag removed by thrombin; not shown: 6xHis, N-terminal, cleaved; pPEP-T leader (short C-terminal fragment of the …)
binds: [7] | [1] | [2] | [3]
